Test results taken from the supplement of paper PMC10724198.
± gives the standard deviation of the averaged measurements.

How the values were obtained:
Saccharomyces cerevisiae [1] = assay: protein stability index of tFT-peptide fusion (C-terminal peptide) (PSI (0-1 scale)); higher = more stable (slower turnover)
Description: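 MPS profiling in S. cerevisiae of the tFT-X12 degron library: putative degron peptides plus stable controls, 12 aa, fused to the C-terminus of a sfGFP-mCherry timer. Cells are FACS-sorted into 8 mCherry/sfGFP bins and deep-sequenced. PSI runs from 0 (unstable) to 1 (stable). Backgrounds are wild type, das1Δ and doa10Δ at 30 °C, and wild type, das1Δ, cdc34-1 and cdc53-1 at 37 °C; 2-3 technical replicates each.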

Saccharomyces cerevisiae [2] = assay: as above; settings: genetic background: wild type; temperature: 30 C
[3] = genetic background: cdc34-1, temperature: 37 C
[4] = genetic background: cdc53-1, temperature: 37 C
[5] = genetic background: das1 deletion, temperature: 30 C
[6] = genetic background: das1 deletion, temperature: 37 C
[7] = genetic background: doa10 deletion, temperature: 30 C
[8] = genetic background: wild type, temperature: 30 C
[9] = genetic background: wild type, temperature: 37 C
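Further: PSI is a weighted mean of sequencing reads over stability bins, variants kept only with over 10 reads, mCherry proximal and sfGFP distal, peptide attached via GGGS linker.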

## TVERKMYWQRWG
Saccharomyces cerevisiae [1]; [3]
  protein stability index: 0.666 ± 0.029
Saccharomyces cerevisiae [1]; [4]
  protein stability index: 0.745 ± 0.025
Saccharomyces cerevisiae [1]; [5]
  protein stability index: 0.641 ± 0.011
Saccharomyces cerevisiae [1]; [6]
  protein stability index: 0.754 ± 0.01
Saccharomyces cerevisiae [1]; [7]
  protein stability index: 0.1794 ± 0.00073
Saccharomyces cerevisiae [1]; [8]
  protein stability index: 0.187 ± 0.0033
Saccharomyces cerevisiae [1]; [9]
  protein stability index: 0.4975 ± 0.0044
Saccharomyces cerevisiae [2]
  protein stability index: 0.391 ± 0.045

## TVGVGWVWVGVL
Saccharomyces cerevisiae [1]; [3]
  protein stability index: 0.5667 ± 0.00058
Saccharomyces cerevisiae [1]; [4]
  protein stability index: 0.611 ± 0.026
Saccharomyces cerevisiae [1]; [5]
  protein stability index: 0.446 ± 0.026
Saccharomyces cerevisiae [1]; [6]
  protein stability index: 0.649 ± 0.015
Saccharomyces cerevisiae [1]; [7]
  protein stability index: 0.367 ± 0.0044
Saccharomyces cerevisiae [1]; [8]
  protein stability index: 0.403 ± 0.015
Saccharomyces cerevisiae [1]; [9]
  protein stability index: 0.576 ± 0.015
Saccharomyces cerevisiae [2]
  protein stability index: 0.467 ± 0.015

## TVIVCCHLEVVY
Saccharomyces cerevisiae [1]; [3]
  protein stability index: 0.0776 ± 0.07
Saccharomyces cerevisiae [1]; [4]
  protein stability index: 0.0367 ± 0.024
Saccharomyces cerevisiae [1]; [5]
  protein stability index: 0.0294 ± 0.014
Saccharomyces cerevisiae [1]; [6]
  protein stability index: 0.0693 ± 0.013
Saccharomyces cerevisiae [1]; [7]
  protein stability index: 0.0254 ± 0.013
Saccharomyces cerevisiae [1]; [8]
  protein stability index: 0.0249 ± 0.0089
Saccharomyces cerevisiae [1]; [9]
  protein stability index: 0.0685 ± 0.023
Saccharomyces cerevisiae [2]
  protein stability index: 0.0135 ± 0.0057

## VAALLCWLHLYA
Saccharomyces cerevisiae [1]; [3]
  protein stability index: 0.602 ± 0.018
Saccharomyces cerevisiae [1]; [4]
  protein stability index: 0.639 ± 0.02
Saccharomyces cerevisiae [1]; [5]
  protein stability index: 0.509 ± 0.019
Saccharomyces cerevisiae [1]; [6]
  protein stability index: 0.622 ± 0.032
Saccharomyces cerevisiae [1]; [7]
  protein stability index: 0.362 ± 0.007
Saccharomyces cerevisiae [1]; [8]
  protein stability index: 0.409 ± 0.029
Saccharomyces cerevisiae [1]; [9]
  protein stability index: 0.563 ± 0.0096
Saccharomyces cerevisiae [2]
  protein stability index: 0.498 ± 0.011

## VAFVVALSLIFL
Saccharomyces cerevisiae [1]; [3]
  protein stability index: 0.327 ± 0.019
Saccharomyces cerevisiae [1]; [4]
  protein stability index: 0.443 ± 0.014
Saccharomyces cerevisiae [1]; [5]
  protein stability index: 0.306 ± 0.028
Saccharomyces cerevisiae [1]; [6]
  protein stability index: 0.424 ± 0.0062
Saccharomyces cerevisiae [1]; [7]
  protein stability index: 0.281 ± 0.019
Saccharomyces cerevisiae [1]; [8]
  protein stability index: 0.333 ± 0.043
Saccharomyces cerevisiae [1]; [9]
  protein stability index: 0.43 ± 0.023
Saccharomyces cerevisiae [2]
  protein stability index: 0.386 ± 0.0059

## VALSILCVFFFF
Saccharomyces cerevisiae [1]; [3]
  protein stability index: 0.253 ± 0.021
Saccharomyces cerevisiae [1]; [4]
  protein stability index: 0.357 ± 0.01
Saccharomyces cerevisiae [1]; [5]
  protein stability index: 0.272 ± 0.035
Saccharomyces cerevisiae [1]; [6]
  protein stability index: 0.4457 ± 0.0032
Saccharomyces cerevisiae [1]; [7]
  protein stability index: 0.24 ± 0.025
Saccharomyces cerevisiae [1]; [8]
  protein stability index: 0.273 ± 0.022
Saccharomyces cerevisiae [1]; [9]
  protein stability index: 0.383 ± 0.0064
Saccharomyces cerevisiae [2]
  protein stability index: 0.309 ± 0.055

## VARLGGRIGWEG
Saccharomyces cerevisiae [1]; [3]
  protein stability index: 0.694 ± 0.022
Saccharomyces cerevisiae [1]; [4]
  protein stability index: 0.736 ± 0.019
Saccharomyces cerevisiae [1]; [5]
  protein stability index: 0.634 ± 0.014
Saccharomyces cerevisiae [1]; [6]
  protein stability index: 0.763 ± 0.015
Saccharomyces cerevisiae [1]; [7]
  protein stability index: 0.652 ± 0.026
Saccharomyces cerevisiae [1]; [8]
  protein stability index: 0.646 ± 0.013
Saccharomyces cerevisiae [1]; [9]
  protein stability index: 0.7208 ± 0.0018
Saccharomyces cerevisiae [2]
  protein stability index: 0.548 ± 0.17

## VCFCFLRFLSLL
Saccharomyces cerevisiae [1]; [3]
  protein stability index: 0.543 ± 0.043
Saccharomyces cerevisiae [1]; [4]
  protein stability index: 0.685 ± 0.014
Saccharomyces cerevisiae [1]; [5]
  protein stability index: 0.572 ± 0.031
Saccharomyces cerevisiae [1]; [6]
  protein stability index: 0.716 ± 0.031
Saccharomyces cerevisiae [1]; [7]
  protein stability index: 0.176 ± 0.0026
Saccharomyces cerevisiae [1]; [8]
  protein stability index: 0.191 ± 0.0057
Saccharomyces cerevisiae [1]; [9]
  protein stability index: 0.24 ± 0.019
Saccharomyces cerevisiae [2]
  protein stability index: 0.262 ± 0.016

## VCFFSSSCFLLV
Saccharomyces cerevisiae [1]; [3]
  protein stability index: 0.58 ± 0.026
Saccharomyces cerevisiae [1]; [4]
  protein stability index: 0.607 ± 0.015
Saccharomyces cerevisiae [1]; [5]
  protein stability index: 0.507 ± 0.021
Saccharomyces cerevisiae [1]; [6]
  protein stability index: 0.623 ± 0.01
Saccharomyces cerevisiae [1]; [7]
  protein stability index: 0.463 ± 0.0036
Saccharomyces cerevisiae [1]; [8]
  protein stability index: 0.45 ± 0.033
Saccharomyces cerevisiae [1]; [9]
  protein stability index: 0.567 ± 0.0069
Saccharomyces cerevisiae [2]
  protein stability index: 0.47 ± 0.035

## VCLVFVVRPCIR
Saccharomyces cerevisiae [1]; [3]
  protein stability index: 0.549 ± 0.021
Saccharomyces cerevisiae [1]; [4]
  protein stability index: 0.578 ± 0.023
Saccharomyces cerevisiae [1]; [5]
  protein stability index: 0.436 ± 0.033
Saccharomyces cerevisiae [1]; [6]
  protein stability index: 0.606 ± 0.022
Saccharomyces cerevisiae [1]; [7]
  protein stability index: 0.401 ± 0.0078
Saccharomyces cerevisiae [1]; [8]
  protein stability index: 0.414 ± 0.023
Saccharomyces cerevisiae [1]; [9]
  protein stability index: 0.599 ± 0.0089
Saccharomyces cerevisiae [2]
  protein stability index: 0.4904 ± 0.0027

## VCLWAIHLSGCW
Saccharomyces cerevisiae [1]; [3]
  protein stability index: 0.546 ± 0.046
Saccharomyces cerevisiae [1]; [4]
  protein stability index: 0.601 ± 0.048
Saccharomyces cerevisiae [1]; [5]
  protein stability index: 0.46 ± 0.022
Saccharomyces cerevisiae [1]; [6]
  protein stability index: 0.58776 ± 0.00056
Saccharomyces cerevisiae [1]; [7]
  protein stability index: 0.453 ± 0.021
Saccharomyces cerevisiae [1]; [8]
  protein stability index: 0.449 ± 0.03
Saccharomyces cerevisiae [1]; [9]
  protein stability index: 0.584 ± 0.014
Saccharomyces cerevisiae [2]
  protein stability index: 0.475 ± 0.035

## VCNYRKLIWKHH
Saccharomyces cerevisiae [1]; [3]
  protein stability index: 0.52 ± 0.024
Saccharomyces cerevisiae [1]; [4]
  protein stability index: 0.661 ± 0.047
Saccharomyces cerevisiae [1]; [5]
  protein stability index: 0.653 ± 0.015
Saccharomyces cerevisiae [1]; [6]
  protein stability index: 0.746 ± 0.029
Saccharomyces cerevisiae [1]; [7]
  protein stability index: 0.0622 ± 0.031
Saccharomyces cerevisiae [1]; [8]
  protein stability index: 0.0668 ± 0.033
Saccharomyces cerevisiae [1]; [9]
  protein stability index: 0.13 ± 0.012
Saccharomyces cerevisiae [2]
  protein stability index: 0.181 ± 0.023

## VCVLRWAVAPCR
Saccharomyces cerevisiae [1]; [3]
  protein stability index: 0.287 ± 0.0041
Saccharomyces cerevisiae [1]; [4]
  protein stability index: 0.342 ± 0.0038
Saccharomyces cerevisiae [1]; [5]
  protein stability index: 0.245 ± 0.035
Saccharomyces cerevisiae [1]; [6]
  protein stability index: 0.429 ± 0.0067
Saccharomyces cerevisiae [1]; [7]
  protein stability index: 0.207 ± 0.0051
Saccharomyces cerevisiae [1]; [8]
  protein stability index: 0.235 ± 0.032
Saccharomyces cerevisiae [1]; [9]
  protein stability index: 0.399 ± 0.013
Saccharomyces cerevisiae [2]
  protein stability index: 0.356 ± 0.027

## VCWCVVVLEFGL
Saccharomyces cerevisiae [1]; [3]
  protein stability index: 0.15 ± 0.049
Saccharomyces cerevisiae [1]; [4]
  protein stability index: 0.367 ± 0.15
Saccharomyces cerevisiae [1]; [5]
  protein stability index: 0.197 ± 0.031
Saccharomyces cerevisiae [1]; [6]
  protein stability index: 0.363 ± 0.0062
Saccharomyces cerevisiae [1]; [7]
  protein stability index: 0.168 ± 0.012
Saccharomyces cerevisiae [1]; [8]
  protein stability index: 0.185 ± 0.029
Saccharomyces cerevisiae [1]; [9]
  protein stability index: 0.267 ± 0.044
Saccharomyces cerevisiae [2]
  protein stability index: 0.313 ± 0.013

## VECPWFCLGVLA
Saccharomyces cerevisiae [1]; [3]
  protein stability index: 0.336 ± 0.027
Saccharomyces cerevisiae [1]; [4]
  protein stability index: 0.318 ± 0.018
Saccharomyces cerevisiae [1]; [5]
  protein stability index: 0.278 ± 0.04
Saccharomyces cerevisiae [1]; [6]
  protein stability index: 0.4359 ± 0.0013
Saccharomyces cerevisiae [1]; [7]
  protein stability index: 0.2324 ± 0.001
Saccharomyces cerevisiae [1]; [8]
  protein stability index: 0.284 ± 0.022
Saccharomyces cerevisiae [1]; [9]
  protein stability index: 0.416 ± 0.0065
Saccharomyces cerevisiae [2]
  protein stability index: 0.3848 ± 0.0018

## VERKLMTIYIKI
Saccharomyces cerevisiae [1]; [3]
  protein stability index: 0.6106 ± 0.0052
Saccharomyces cerevisiae [1]; [4]
  protein stability index: 0.6479 ± 0.003
Saccharomyces cerevisiae [1]; [5]
  protein stability index: 0.451 ± 0.018
Saccharomyces cerevisiae [1]; [6]
  protein stability index: 0.6806 ± 0.0061
Saccharomyces cerevisiae [1]; [7]
  protein stability index: 0.492 ± 0.015
Saccharomyces cerevisiae [1]; [8]
  protein stability index: 0.499 ± 0.063
Saccharomyces cerevisiae [1]; [9]
  protein stability index: 0.6076 ± 0.00061
Saccharomyces cerevisiae [2]
  protein stability index: 0.493 ± 0.005

## VFAFVVFLHFEC
Saccharomyces cerevisiae [1]; [3]
  protein stability index: 0.188 ± 0.015
Saccharomyces cerevisiae [1]; [4]
  protein stability index: 0.296 ± 0.048
Saccharomyces cerevisiae [1]; [5]
  protein stability index: 0.237 ± 0.036
Saccharomyces cerevisiae [1]; [6]
  protein stability index: 0.375 ± 0.013
Saccharomyces cerevisiae [1]; [7]
  protein stability index: 0.184 ± 0.012
Saccharomyces cerevisiae [1]; [8]
  protein stability index: 0.238 ± 0.029
Saccharomyces cerevisiae [1]; [9]
  protein stability index: 0.375 ± 0.066
Saccharomyces cerevisiae [2]
  protein stability index: 0.31 ± 0.0057

## VFFCLFWFFCSF
Saccharomyces cerevisiae [1]; [3]
  protein stability index: 0.54 ± 0.009
Saccharomyces cerevisiae [1]; [4]
  protein stability index: 0.571 ± 0.057
Saccharomyces cerevisiae [1]; [5]
  protein stability index: 0.482 ± 0.031
Saccharomyces cerevisiae [1]; [6]
  protein stability index: 0.54 ± 0.0084
Saccharomyces cerevisiae [1]; [7]
  protein stability index: 0.454 ± 0.0066
Saccharomyces cerevisiae [1]; [8]
  protein stability index: 0.453 ± 0.017
Saccharomyces cerevisiae [1]; [9]
  protein stability index: 0.492 ± 0.012
Saccharomyces cerevisiae [2]
  protein stability index: 0.51 ± 0.12

## VFFVTSCWVFRG
Saccharomyces cerevisiae [1]; [3]
  protein stability index: 0.416 ± 0.018
Saccharomyces cerevisiae [1]; [4]
  protein stability index: 0.574 ± 0.019
Saccharomyces cerevisiae [1]; [5]
  protein stability index: 0.432 ± 0.022
Saccharomyces cerevisiae [1]; [6]
  protein stability index: 0.64 ± 0.022
Saccharomyces cerevisiae [1]; [7]
  protein stability index: 0.0921 ± 0.02
Saccharomyces cerevisiae [1]; [8]
  protein stability index: 0.109 ± 0.028
Saccharomyces cerevisiae [1]; [9]
  protein stability index: 0.208 ± 0.029
Saccharomyces cerevisiae [2]
  protein stability index: 0.1794 ± 0.0015
